The DeepSol protein solubility set

Test: soluble on expression in E. coli; label from the status in PepcDB or PDB records

Row | Sequence | soluble on expression in E. coli
1 | GFIDTHVHSGHRALHKLLADGGRPDLFGQPYMDVTIARDGTRIKGYPNYLSREEAAVDPGIALHAAFTVAELLRNGVTTFVELGGHVMVQEALWRECERLGVRGYLGAGYDSGRWAADDQGRLRRVPYPDGGDHLFEEAVAFIKRVQAAGNDLVNGILVPREVENCSVDILRRTVQAAQELGVPMATHAGYNVIEFYETVREHRMTPIELLHSVGMLGPRLNIGHANLISDSPRLNYSGGRDLALMGEHRVSISHCPINIVRRARVLDSWKKYREAGVNLTIGSDTYPRDMVMNMRTASYHGKVMSHDLTAASAAEVFEAATLGGARSLGRTDI | not soluble
2 | MAHHHHHHMAWTVHEDEYRTEGYDNLEEILQYVVHTEESVQQSKPTVKYTKSSQVFATPSPLTAAELSSPIKHQLTNTVPWQPQSHTPTNSSFHSLGIPYTSAQSPQQRRCNNRFNGSYSGQCDRKPKIMSSSETCILSPGARKRGMGTGQMDHMMATELNEMPMPELITQEVLASKDMMVGGGYSDWSGSGSKYFQSGALTADSLRGRVYETAKDQHGCRYLQRWLDTNCDPEALQVMMNEIIPHVGELMTDQYANFLIQKLFDIMPDDVRYKVAIVAAPQICMISLTPHGTFSVQKMIETISTREEMEIISEALCKDVVRLVKDAHGNHVIQKVLQRFDFDDKEYIYRAVATDCVSIAKNKQGCCVLQRCLEHASPRQKAALVDQVLACCLQIVQDPFGNYVLQYVLEEHDSKINDTIALAFLPHLVQLSMNKFSSNVMEKVLRGASGPVQVMYMEEMCNPEIISHLIQDDYGNYVLQTALTINAPVQAAQLVNVIRPFMPLIRNAPYAKKMEGKMENVARKVECNHFHAPRDCEVDARQGSSGGSPHGKFDRSPNHGRHYVGGTDQQQPYNHPT | not soluble
3 | MRELKVVGLDADGKNIICQGAIPSEQFKLPVDDRLRAALRDDSVQPEQAQLDIEVTNVLSPKEIQARIRAGASVEQVAAASGSDIARIRRFAHPVLLERSRAAELATAAHPVLADGPAVLTMQETVAAALVARGLNPDSLTWDAWRNEDSRWTVQLAWKAGRSDNLAHFRFTPGAHGGTATAIDDTAHELINPTFNRPLRPLAPVAHLDFDEPEPAQPTLTVPSAQPVSNRRGKPAIPAWEDVLLGVRSGGRR | soluble
4 | MSFQLDQSTSVIKTAPPGRLEFKNEPIDIASSNIQDLAKMQTLDGYYQQTSLQLPQSQQYHRMYENVYNNQQILYAQTQNFQYPSTLLTNGSLAQTEWRGQQMDTSAYSNTGYSRSSTSQQPQYTQQVTENERIVYKPVDMPSPVDSGIGGDISILNPKEEFFTSADGGSMLERSSERTLSHRDSPLVIPKLYNNLGFQYVLEAPISTSVRRDDDRMTYVNKGQFYTVSLEYTPDLNKCLKSQTVKSQLMVVFREDKTYEEEIKTWQSWHARQHVSKQRILEIDSKNSSGMIGQIEEIGNNAVQFYWNPSDPSGVRISIAVQCLSTDFSTQKGVKGLPLHVQIDTYDGENDKVPFHRGYCQIKVFCDKGAERKLRDEDKRAQKRKVQEYTAGALPGGRKKSDGEYHDQCERSEFYHMRELDKPAALFIAPEEFEPRYVDSTSLSFDMSEIEPIPTKRPRTSERIMLYVRKRDEQIYQPLHVVPASLSGLALAIANKFGADPDKMSGVYKRCAKGITVKVDDEMLRLYCNEDTFIIDVEHATDGSTAATLIEVAPTNPNSYSNS | not soluble
5 | MRLIEQAIEKIESGQVTEGLTALEEAAKTANHEMKYTVAETYYELGHLDKAQAIIDELLMLYPDEGGLYTFAAEILIDLNKEDEAIEMLNEIKEQDPAFLQAQLLLADLYQLQSLDEVAEQKLLKAYEVAPDEPIISFGLGEFYLERGDYIKSIPHLKRAKHGGLTNDQVNVSLKLAEAYSGSGQFEEALPHYDEGLKQKLDPHGLFGYGYTAYLLGDYVLAIEQFQALKALDPDFYDPIPVFGEGFRRGKSFRGSNGCFKRGDDRGLEHHHHHH | soluble
6 | MNDLEKKFYELPELPYPYDALEPHISREQLTIHHQKHHQAYVDGANALLRKLDEARESDTDVDIKAALKELSFHVGGYVLHLFFWGNMGPADECGGEPSGKLAEYIEKDFGSFERFRKEFSQAAISAEGSGWAVLTYCQRTDRLFIMQVEKHNVNVIPHFRILLVLDVWEHAYYIDYRNVRPDYVEAFWNIVNWKEVEKRFEDIL | soluble
7 | VSAPDSPALAGMSIGAVLDLLRPDFPDVTISKIRFLEAEGLVTPRRASSGYRRFTAYDCARLRFILTAQRDHYLPLKVIRAQLDAQPDGELPPFGSPYVLPRLVPVAGDSAGGVGSDTASVSLTGIRLSREDLLERSEVADELLTALLKAGVITTGPGGFFDEHAVVILQCARALAEYGVEPRHLRAFRSAADRQSDLIAQIAGPLVKAGKAGARDRADDLAREVAALAITLHTSLIKSAVRDVLHR | soluble
8 | MNFTRLLNQVLSTVQKKGNTFSDSPLNSFGGGALVAGVASMLLNGKNRKTITKIGSTAALGYLAYRGYQMWQQNKGRATVTQSDFQPAGETEETYSRTVLRTMIAAAASDGMIDEAERRTIEQESGTDPETAAWLAAEYRLPASIEDIAAAVGNDEALAAEAYLAARLVCADLSRKETVFLARLSQALKLDDNLVESLERQLGF | not soluble
9 | MRFFLSPPHMGGNELKYIEEVFKSNYIAPLGEFVNRFEQSVKDYSKSENALALNSATAALHLALRVAGVKQDDIVLASSFTFIASVAPICYLKAKPVFIDCDETYNIDVDLLKLAIKECEKKPKALILTHLYGNAAKMDEIVEICKENDIVLIEDAAEALGSFYKNKALGTFGEFGVYSYNGNKIITTSGGGMLIGKNKEKIEKARFYSTQARENCLHYEHLDYGYNYRLSNVLGAIGVAQMEVLEQRVLKKREIYEWYKEFLGEYFSFLDELENSRSNRWLSTALINFDKNELNACQKDINISQKNITLHPKISKLIEDLKNKQIETRPLWKAMHTQEVFKGAKAYLNGNSELFFQKGICLPSGTAMSKDDVYEISKLILKSIKAGSHHHHHH | soluble
10 | ASTTTPTLRLNWLQPPFNNQKVRQALLHAVSQRDYMDAQVGDPKAYRVCWAMFGCDSPLASTAGVVSQDDEADLNAAKALLKESGYKNEKAVVLHATDYPPTSAIAPFTAQILRSIGMKAEVQSMDWATFLTRRGKQDPVEKGGWSVAYGSWNTLDLMSPIANLNLDGRGKEGYAGWTESAEMESLRTQYAQATEPASRQQIAAKIQQLAYDQVFYIPLGTY | not soluble
11 | KRKERLSARLGDILSQLYLSSATLKRFEQDGRPAEDLALVHWGLQDSLKQAEIAIDEFLANFPNKVIGRTLRVLIMPFGRVRKAPSDKLDSKVARILQTPSATRSRIGRGQYLEPTEHNPAGKIELALSVILQAEPVFDKVCKAQGKRRPFLRLDMIAQEGLEQGVITQEEAELLREAEQHRLDTINVDDFEPELLAAKPLYPQMDSVA | not soluble
12 | ANNLPDTQSSGPAHSKETPALTAVETGATNPLVPSDTVQTRHVIQKRTRSESTVESFFARGACVAIIEVDNDAPTKRASKLFSVWKITYKDTVQLRRKLEFFTYSRFDMEFTFVVTSNYTDANNGHALNQVYQIMYIPPGAPIPGKWNDYTWQTSSNPSVFYTYGAPPARISVPYVGIANAYSHFYDGFAKVPLAGQASTEGDSLYGAASLNDFGSLAVRVVNDHNPTKLTSKIRVYMKPKHVRVWCPRPPRAVPYYGPGVDYKDGLAPLPGKGLTTY | soluble
13 | MIKDILNTIASLVEENVVVFASERGKQLLQKVKADLVSFKPINFYALDAGKQITDALKLIESYCIEMNRIFDELNHQSSVSLANEKLTHKIKNILTNLKNKQNKITQLREKIPEGMLDIKRALYIVENSFLSESEPEEKELRSKFKRIKKFMSNSNKEYLDLIKKGGLLNTVLLDTTTLYWNQLHEYSTLLNQCRITLQKSHHLTKEGQLALRCFNSAIQKMPPKKHIINALKILNKPNSKTEAIEKIGFVSPHGREACMQLTCWGKKFFYIPRSEEMYHFDYDPKEDLNETGGNCFGESMMFIHFLSKGAIRWLCPEAGLINFQLDQTRNLKFKKATLGEGETLVSDNSPHDSLEWEDMRPVLLDNPYFKPGSLCGVIFSMNDYTKAKREFTAGHMIVVAKLDTNLNPYKYIIYEKDFGAFGLTDDESLEYLISEQILPLYRGMNYSKIKLVKYGEASTETYDLLNKIKPQTGIPQKESTASDSINTYFDNAFFKLSKETNKENVIDQVNQTDVFGFCRN | not soluble
14 | MVTITLYMNNNIEYISKIKKGEETSFRHFVNSYSKDLFYYAQCFVRSKETAEEVVSDVFLDVWRHREEIDEIKNIKAWLLTLTHNKAISYLRKAENSSEIASWEEIDDFQIIGNLQTPDEEMISKEEIAQINSLIQTLPPKCKVVFALAKIERLPYKEIADMLNISVKTINVHVAKALEIISNGLKK | not soluble
15 | MASHMERDPQVAGLKVPPHSIEAEQSVLGGLMLDNERWDDVAERVVADDFYTRPHRHIFTEMARLQESGSPIDLITLAESLERQGQLDSVGGFAYLAELSKNTPSAANISAYADIVRER | soluble
16 | MSSQKQLEGMIFDVQSFSVHDGPGCRTTVFLNGCPLSCKWCANPESWTVRPHMMFSELSCQYENGCTVCHGKCKNGALSFNLDNKPVIDWNICKDCESFECVNSCYYNAFKLCAKPYTVDELVQVIKRDSNNWRSNGGVTFSGGEPLLQHEFLHEVLLKCHEVNIHTAIETSACVSNEVFNKIFNDIDFAFIDIKHMDREKHKEQTGVYNDLILENISNLANSDWNGRLVLRVPVISGFNDSDENISDIISFMHKNNLVEINLLPFHRLGESKWTQLGKEYEYSDKGDVDEGHLEELQDIFLDNGIACYVGHETAF | not soluble
17 | MSLYTFKELKRATKQDTVSLPKLKVALLGDTATQLLATAIKGEGILRNYNIELWEAEYNQVERQIMDPTSDYYQFEPDYTIIFHSTHKLLEKHSLVNSDLQNKLADDRLDFVRLLCEQGIGRVIYYNYPEIEDTIWGSYATKVQSSFTYQLTKLNYELMNISQAYPNFFICNLAGISAKYGRNFMFDSSVYVNTEIILSLDALPIISSRTIDIIAAIQGKFKKCLILDLDNTIWGGVVGDDGWENIQVGHGLGIGKAFTEFQEWVKKLKNRGIIIAVCSKNNEGKAKEPFERNPEMVLKLDDIAVFVANWENKADNIRTIQRTLNIGFDSMVFLDDNPFERNMVREHVPGVTVPELPEDPGDYLEYLYTLNLFETASFSEDDKDRTKQYQIEAKRVSLQQSFTNEAEFLKSLDMVSEVKGFDKFNTPRVAQLSQRSNQFNLRTVRYTEAEIAAIESDLHYATFSFTLADRFGDNGLICVIILEKQDTETLFINTWFMSCRVLKRGMENFTLNTLVDYARSNGFKRFIGEYLPSAKNQMVEEHYPHLGFSKMEGGDNAARYVLDVETYEEKECYITKKEGHHHHHH | soluble
18 | MVHPALEFSDCYSDSPDFRERLKCYENELEKTNKFLKDVIKDGNNVINTFKEYSLAVQKFSQTLQSFQFDFIGDTLTDDEMNIAESFREFAGLLQDVEEARMMLVQNASDLLIKPLEKFRKEQIGVTKERRKKFEKESEKYYSQLDKHVNLSSKKKETQLQEADEQLDKERQAFYESSVEYVYQIQQVQEKKKFDVVEPVLAFLQSILTLNNLTVEMYTFRNKGTKCNTGEIPFQKVQFCTIQVDISTFMVHFCTFKLYFCTFKIP | not soluble
19 | MTTIVPTSEENPFLAVVRFTSQLAWADAGPEAAEPEITRLCREAEESMVAEKWLELSSLMVTSAELVSSKISEKDLECTYTIICSIVKNAKSPEQVLEMVKAIASKVAQQPSDKASLRLKILFNLYNLVDHPYARFQVYMKALTLAVDGKVTEYIVSSFKKIDNFLKEWNIDIKDQRELFLAIANVLKENKSLVNESLKFLTKYLATFSNEDAQVLDEAKEEAVRAVIEFVKASSIFQCDLLDLPAVAQLEKDAKYAPVYQLLKIFLTQRLNAYTEFQNANSGFLQSYGLSNEDCVTKMRLLSLVDLASDESGKIPYTSIKDTLQVNEQDVELWIVKAITAKLIESALPNVNLGQSNGNLSEQSLRLGSIITTIESNKVTEEGSQASSSSAAAIQGLSVR | soluble
